What was measured:
[1] = target: hemagglutinin (HA) of influenza virus B/Florida/04/06 (Yamagata) (influenza B virus); assay: cell-based or functional assay
[2] = target: hemagglutinin (HA) of influenza virus B/Harbin/7/94 (Yamagata) (influenza B virus); assay: cell-based or functional assay
[3] = target: hemagglutinin (HA) of influenza virus B/Lee/40 (Old) (influenza B virus) (UniProt P03460); assay: cell-based or functional assay
[4] = target: hemagglutinin (HA) of influenza virus B/Brisbane/60/08 (Victoria) (influenza B virus); assay: cell-based or functional assay
[5] = target: hemagglutinin (HA) of influenza virus B/Malaysia/2506/04 (Victoria) (influenza B virus); assay: cell-based or functional assay
[6] = target: HA of B/Florida/04/2006 (Yamagata) (influenza B virus); assay: cell-based or functional assay
[7] = target: HA of B/Harbin/7/94 (Yamagata) (influenza B virus); assay: cell-based or functional assay
[8] = target: HA of B/Brisbane/60/2008 (Victoria) (influenza B virus); assay: cell-based or functional assay
[9] = target: HA of B/Malaysia/2506/04 (Victoria) (influenza B virus); assay: cell-based or functional assay
[10] = target: HA of B/Florida/04/2006 (Yamagata) (influenza B virus); assay: AlphaLISA competition vs CR8033
[11] = target: hemagglutinin (HA) of influenza A/Brisbane/10/07 (H3N2) (influenza A virus A/Brisbane/10/07 (H3N2)); assay: cell-based or functional assay
[12] = target: hemagglutinin (HA) of influenza A/waterfowl/Hong Kong/MPA892/06 (H4) (influenza A virus A/waterfowl/Hong Kong/MPA892/06 (H4)); assay: cell-based or functional assay
[13] = target: hemagglutinin (HA) of influenza A/chicken/Germany/n/49 (H10N7) (influenza A virus A/chicken/Germany/n/49 (H10N7)); assay: cell-based or functional assay
[14] = target: hemagglutinin (HA) of influenza A/New York/107/03 (PR8) (influenza A virus A/New York/107/03 (PR8)); assay: cell-based or functional assay
[15] = target: HA of H1N1 A/Puerto Rico/8/34-MA (influenza A virus); assay: cell-based or functional assay
[16] = target: HA of H4 A/WF/HK/MPA892/06 (influenza A virus); assay: cell-based or functional assay
[17] = target: HA of H10N7 A/Chick/Germany/N/49 (influenza A virus); assay: cell-based or functional assay
[18] = target: HA of H3N2 A/Brisbane/10/2007 (influenza A virus); assay: cell-based or functional assay
[19] = target: HA of H5N1 A/PR8 H5N1 HK97 (influenza A virus); assay: cell-based or functional assay
[20] = target: HA of H3N2 A/HK/1/68 (influenza A virus) (UniProt Q91MA7); assay: cell-based or functional assay
[21] = target: HA of H1N1 A/New Caledonia/20/1999 (influenza A virus); assay: cell-based or functional assay
[22] = target: HA of H7N3 A/NIBRG/60 (A/mallard/NL/12/00) (influenza A virus); assay: cell-based or functional assay
[23] = target: HA of H5N1 A/Vietnam/1194/04 (influenza A virus); assay: cell-based or functional assay
[24] = target: hemagglutinin (HA) of influenza virus H5N1 A/Vietnam/1194/04 (influenza A virus); assay: cell-based or functional assay
[25] = target: hemagglutinin (HA) of influenza virus H7N3 A/NIBRG/60 (A/mallard/Netherlands/12/00) (influenza A virus); assay: cell-based or functional assay
[26] = target: hemagglutinin (HA) of influenza virus H3N2 A/Brisbane/10/07 (influenza A virus); assay: cell-based or functional assay
[27] = target: hemagglutinin (HA) of influenza virus H7N9 A/Anhui/1/13 (influenza A virus); assay: cell-based or functional assay

B1: MD1222 (bispecific antibody)
chain: EVQLVESGGGLVQPGGSLRLSCAATGFTLENKAIGWFRQTPGSEREGVLCISKSGSWTYYTDSMRGRFTISRDNAENTVYLQMDSLKPEDTAVYYCATTTAGGGLCWDGTTFSRLASSWGQGTQVTVSSAAAGGGGSGGGGSGGGGSGGGGSGGGGSGGGGSGGGGSEVQLVESGGGLVQPGGSLKLSCAASGFTFSTSWMYWLRQAPGKGLEWVSVINTDGGTYYADSVKDRFTISRDNAKDTLYLQMSSLKSEDTAVYYCAKDWGGPEPTRGQGTQVTVSS
neutralization titer [1]: 2.1 nM | neutralization titer [2]: 7.2 nM | neutralization titer [3]: 12.7 nM | neutralization titer [4]: 3 nM | neutralization titer [5]: 3.6 nM

B2: SD1085 (VHH)
VHH: EVQLVESGGGLVQAGDSLRLSCVISGLSLDTYAVGWFRQAPGKEREGITCISSGHGMTYYADSVKGRFTVSTDNAKNTVYLQMNGLQPEDTARYYCATESRYYCSDNWPAPQRYIYWGQGTQVTVSS
VNA titer [6]: 187 nM | VNA titer [7]: 631 nM | VNA titer [8]: 40.7 nM | VNA titer [9]: 66.3 nM | pIC50 [10]: < 7

B3: MD1224 (VHH)
chain: EVQLVESGGGLVQPGGSLKLSCAASGFTFSTSWMYWLRQAPGKGLEWVSVINTDGGTYYADSVKDRFTISRDNAKDTLYLQMSSLKSEDTAVYYCAKDWGGPEPTRGQGTQVTVSSAAAGGGGSGGGGSGGGGSGGGGSGGGGSGGGGSGGGGSEVQLVESGGGLVQPGGSLKLSCAASGFTFSTSWMYWLRQAPGKGLEWVSVINTDGGTYYADSVKDRFTISRDNAKDTLYLQMSSLKSEDTAVYYCAKDWGGPEPTRGQGTQVTVSS
neutralization titer [1]: 0.8 nM | neutralization titer [2]: 4.5 nM | neutralization titer [3]: 33 nM | neutralization titer [4]: 4.1 nM | neutralization titer [5]: 2.7 nM

B4: SD3097 (VHH)
VHH: EVQLLESGGGLVQPGGSLRLSCAASGRTYAMGWFRQAPGKEREFVAAINALGTRTYYADSVKGRFTISRDNSKNTLYLQMNSLRAEDTAVYYCTAQGQWRAAPVAVAAEYEFWGQGTLVTVSS
VNA IC50 [11]: 17 nM | VNA IC50 [12]: 6 nM | VNA IC50 [13]: 6 nM | VNA IC50 [14]: 8 nM

B5: SD3099 (VHH)
VHH: EVQLVESGGGLVQPGGSLRLSCAASGRTLSIYSMGWFRQAPGKEREFVATIGWNSGRTFYPDSVKGRFTISRDNSKNTLYLQMNSLRAEDTAVYYCAAAKGPLRLSSQADYWGQGTLVTVSS
VNA IC50 [11]: 3 nM | VNA IC50 [12]: 2 nM | VNA IC50 [13]: 5 nM | VNA IC50 [14]: 16 nM

B6: SD1069 (VHH)
VHH: EVQLVESGGGLVQAGDSLRLSCAASGPTFGMSAMGWFRQAPGKEREFVAAISGLGNPNYSDDVKGRFTISRENGRNTVYLQMNSLKPEDTAVYYCAQRKVYHVQGGDRPQAYDYWGQGTQVTVSS
VNA titer [15]: 12.8 nM | VNA titer [16]: > 1000 nM | VNA titer [17]: > 1000 nM | VNA titer [18]: > 1000 nM | VNA titer [19]: 242 nM | VNA titer [20]: > 1000 nM | VNA titer [21]: 20.8 nM | VNA titer [22]: > 1000 nM | VNA titer [23]: 74 nM

B7: SD1073 (VHH)
VHH: EVQLVESGGGLVQAGGSLRLSCAASGSAFSIAAMGWYRQAPGKQRELVATITTGGSTNYADSVKGRFTISRDNSKNTAYLQMNSLKPEDTAVYYCTAKSVVAETFGDLYNYWGQGTQVTVSS
VNA titer [15]: 89.6 nM | VNA titer [16]: > 1000 nM | VNA titer [17]: 317 nM | VNA titer [18]: > 1000 nM | VNA titer [19]: 179 nM | VNA titer [20]: > 1000 nM | VNA titer [21]: 98.9 nM | VNA titer [22]: 135 nM | VNA titer [23]: 224 nM

B8: MD2313 (bispecific antibody)
chain: EVQLVESGGGLVQAGDSLRISCAASGRTLSIYSMGWFRQAPGKEREFVATIGWNSGRTFYPDSLKGRFTISRDNARNTLYLQMNNLRPEDTAVYYCAAAKGPLRLSSQADYWGQGTQVTVSSGGGGSGGGGSEVQLVESGGGLVQAGDSLRISCAASGRTLSIYSMGWFRQAPGKEREFVATIGWNSGRTFYPDSLKGRFTISRDNARNTLYLQMNNLRPEDTAVYYCAAAKGPLRLSSQADYWGQGTQVTVSSGGGGSGGGGSEVQLVESGGGLVQPGGSLRLSCAATGFTLENKAIGWFRQTPGSEREGVLCISKSGSWTYYTDSMRGRFTISRDNAENTVYLQMDSLKPEDTAVYYCATTTAGGGLCWDGTTFSRLASSWGQGTQVTVSS
average neutralization titer [24]: > 1000 nM | average neutralization titer [25]: 6.5 nM | average neutralization titer [26]: 7.7 nM | average neutralization titer [27]: 21.7 nM
